Paper PMC9464622 (2022)

Target: T1, LL-37 (Homo sapiens, UniProt P49913)
T1 chain: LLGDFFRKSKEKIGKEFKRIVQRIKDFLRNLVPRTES
Assay: tryptophan fluorescence

B1: rfhSP-A trimeric recombinant fragment (protein)
chain: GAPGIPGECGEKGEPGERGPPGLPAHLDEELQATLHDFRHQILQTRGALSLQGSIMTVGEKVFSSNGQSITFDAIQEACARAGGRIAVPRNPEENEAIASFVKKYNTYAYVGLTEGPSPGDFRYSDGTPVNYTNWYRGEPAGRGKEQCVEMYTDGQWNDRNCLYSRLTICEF
**Q.** With B1 as the binder, how does the Kd read?
**A.** The Kd was 1.22 nM.
